Our source for the EC50 values is US20230272086A1 (CHIA TAI TIANQING PHARMACEUTICAL GROUP, published 2023).

Test [1] has as its target T1, cynomolgus monkey ST2 antigen (Cyno-ST2-his, Sino biological, 90915-C08H) (cynomolgus monkey, UniProt Q01638 19-328 (human entry)).
T1 construct: Bought protein; not shown: his tag
T1 chain: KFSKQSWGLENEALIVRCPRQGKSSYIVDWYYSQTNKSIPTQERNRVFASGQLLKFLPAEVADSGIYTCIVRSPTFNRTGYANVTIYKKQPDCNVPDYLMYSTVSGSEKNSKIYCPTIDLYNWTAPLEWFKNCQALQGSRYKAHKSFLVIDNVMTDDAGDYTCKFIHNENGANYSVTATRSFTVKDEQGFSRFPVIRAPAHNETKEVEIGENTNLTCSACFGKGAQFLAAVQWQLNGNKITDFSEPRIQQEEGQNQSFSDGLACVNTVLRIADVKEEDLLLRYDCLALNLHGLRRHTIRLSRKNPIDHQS
In words: ELISA, plate coated with Cyno-ST2-his. Here is the method: ST2 binding screening and analysis of antibodies were performed by ELISA using hST2-ECD-mFc (for assays of chimeric and humanized antibodies), hST2-ECD-hFc protein (for assays of hybridoma antibodies) and Cyno-ST2-his (Sino biological, 90915-C08H) as antigens. A high-adsorption 96-well plate (Costar, 9018) was coated with 2 µg/mL hST2-ECD-mFc or Cyno-ST2-his antigen at 100 µL/well and incubated overnight at 4° C. After the antigen not adsorbed was well washed off, the non-specific binding sites were blocked with a blocking buffer (PBS containing 2% bovine serum albumin). After the plate was washed three times with a washing buffer (PBS containing 0.05% (v/v) Tween 20), the anti-ST2 antibodies (serially diluted 3-fold from an initial concentration of 10 nM to 8 concentrations: 3.333 nM, 1.111 nM, 0.370 nM, 0.123 nM, 0.041 nM, 0.014 nM, 0.005 nM, and 0.002 nM) were added at 100 µL/well, and the plate was incubated at room temperature for 1 h. After the plate was washed with the washing buffer, a horseradish peroxidase (HRP)-conjugated secondary antibody was added, and the plate was incubated for another 60 min. After the plate was washed with the washing buffer, the substrate TMB solution (Thermo, 00-4201-56) was added at 100 µL/well, and the plate was incubated at room temperature for 2 min. A stop solution (2 N H₂SO₄) was added at 100 µL/well to terminate the reactions. Colorimetric signals were generated and read at 450 nm using a microplate reader (PE, Envision). The data were analyzed using GraphPad Prism5, and the EC₅₀ values were calculated.
The humanized antibodies hz31C81-1.1 (the amino acid sequence of the heavy chain set forth in SEQ ID NO: 75 and the amino acid sequence of the light chain set forth in SEQ ID NO: 81) and hz31C8-1.2 (the amino acid sequence of the heavy chain set forth in SEQ ID NO: 77 and the amino acid sequence of the light chain set forth in SEQ ID NO: 81) were subjected to affinity, binding, blocking and cell function analyses using the methods described in Example 4, Example 5, Example 6, Example 7, Example 8, Example 9 and Example 10.
On the technique in general: ELISA stands for enzyme-linked immunosorbent assay.

Test [2] addresses T2, human ST2 (hST2, Interleukin-1 receptor-like 1 isoform A) on cells (human, UniProt Q01638 19-556).
T2 construct: the same id is used for hST2 naturally expressed on KU812 cells and on human CD4+ T cells; also called HEK293T-hST2-NFκB-Luciferase; KU812-NFκB-Luciferase
T2 sequence: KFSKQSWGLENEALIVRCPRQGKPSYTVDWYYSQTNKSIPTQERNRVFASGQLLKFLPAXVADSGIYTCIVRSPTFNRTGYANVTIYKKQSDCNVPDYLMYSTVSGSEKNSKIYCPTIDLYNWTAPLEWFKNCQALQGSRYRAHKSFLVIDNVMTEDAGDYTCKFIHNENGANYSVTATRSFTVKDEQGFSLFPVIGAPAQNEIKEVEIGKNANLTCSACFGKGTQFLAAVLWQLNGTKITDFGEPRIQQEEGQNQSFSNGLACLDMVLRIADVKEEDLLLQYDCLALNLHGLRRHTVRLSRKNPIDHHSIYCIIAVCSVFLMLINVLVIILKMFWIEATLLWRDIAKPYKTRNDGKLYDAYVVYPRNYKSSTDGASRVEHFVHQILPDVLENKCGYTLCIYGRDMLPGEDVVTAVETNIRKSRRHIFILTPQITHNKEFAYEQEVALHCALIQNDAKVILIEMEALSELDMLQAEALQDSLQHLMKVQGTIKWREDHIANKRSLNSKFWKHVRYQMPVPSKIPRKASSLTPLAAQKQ
Nature of the test: flow cytometry on HEK293T-hST2-NFκB-Luciferase cells. The procedure: 3 × 10⁵ HEK293T-hST2-NFκB-Luciferase or HEK293T-Cyno-ST2-NFκB-Luciferase cells were added to a 96-well culture plate. Serially diluted anti-ST2 antibodies (serially diluted 4-fold from an initial concentration of 667 nM to 8 concentrations in binding assays with the HEK293T-hST2-NFκB-Luciferase cells; serially diluted 4-fold from an initial concentration of 400 nM to 8 concentrations in binding assays with the HEK293T-Cyno-ST2-NFκB-Luciferase cells) were added to the cell suspensions. After the plate was incubated at room temperature for 60 min, the cells were washed 3 times with PBS. […] The cells were washed 3 times with PBS and resuspended in 100 µ1L of PBS, and then the fluorescence signals were analyzed and detected using a flow cytometer (BD, Accuri C6). The binding capacity of the anti-ST2 antibodies to hST2 and cyno-ST2 on the cell line surfaces was measured in terms of the mean fluorescence intensity (MFI) of staining. The data were analyzed using GraphPad Prism5, and the EC₅₀ values were calculated. The EC₅₀ values for the binding of the anti-ST2 chimeric antibodies to hST2 and Cyno-ST2 at the cellular level are shown in Table 8 and FIGS. 7-8.
The humanized antibodies hz31C81-1.1 (the amino acid sequence of the heavy chain set forth in SEQ ID NO: 75 and the amino acid sequence of the light chain set forth in SEQ ID NO: 81) and hz31C8-1.2 (the amino acid sequence of the heavy chain set forth in SEQ ID NO: 77 and the amino acid sequence of the light chain set forth in SEQ ID NO: 81) were subjected to affinity, binding, blocking and cell function analyses using the methods described in Example 4, Example 5, Example 6, Example 7, Example 8, Example 9 and Example 10. In the present disclosure, “hz” and “xi” denote humanized antibodies and chimeric antibodies, respectively; for example, “hz31C81-1.1” and “hz31C81-1.2” represent humanized 31C81-1.1 and 31C81-1.2 antibodies, and “xi31C8” represents a chimeric 31C8 antibody.
In general terms: Flow cytometry measures light scatter and fluorescence of single cells or particles in a stream.

As usually defined, the EC50 is the concentration at which the effect is half-maximal.

B1: Chimeric 31C8 (antibody, human IgG2, kappa, V domains shown)
VH: QVQLQQSGPELVRPGASVTLSCKASGYIFIDSEMHWVKQTPVHGLEWIGAIDPETGDTVYNQKFKGKATLTADKSSSTASMELSSLTSEDSAVYYCTGSTTDYYFAYWGQGTTLTVSS
VL: DIVMTQAAFSNPVTLGTSASISCRSSKSLLHSNGIIYLYWYLQKPGQSPQLLIYQMSNLASGVPDRFSSSGSGTDFTLRISRVEAEDVGVYYCAQNLELPFTFGSGTKLEIKR
notes: also called xi31C8
Regarding B1, the half-maximal effective concentration (EC50) in test [1] stood at 69 pM; in test [2], 405 pM.

B2: RG6149 (antibody Ab2 in CN104334582, prepared in-house) (antibody, human IgG2, kappa, V domains shown)
VH: EVQLVQSGAEVKKPGESLKISCKGSGYSFTNYWIGWVRQMPGKGLEWMGIIYPGNSDTRFSPSFQGQVTISADKSITTAYLQWSSLKASDTAMYYCARHGTSSDYYGLDVWGQGTTVTVSS
VL: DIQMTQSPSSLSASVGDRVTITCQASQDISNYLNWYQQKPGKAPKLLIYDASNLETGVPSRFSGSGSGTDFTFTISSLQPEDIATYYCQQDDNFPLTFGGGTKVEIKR
notes: Control anti-ST2 antibody
As for B2, the EC50 in test [1] worked out at 178 pM; in test [2], 581 pM.

B3: Humanized 31C8-1.1 (antibody, human IgG2, kappa, V domains shown)
VH: EVQLVQSGAEVKKPGATVKISCKASGYIFIDSEMHWVQQAPGKGLEWMGAIDPETGDTVYAEKFQGRVTITADKSSSTAYMELSSLRSEDTAVYYCTGSTTDYYFAYWGQGTLVTVSS
VL: DIQMTQSPSSLSASVGDRVTITCRSSKSLLHSNGIIYLYWYQQKPGKAPKLLIYQLSNLASGVPSRFSSSGSGTDFTLTISSLQPEDFATYYCAQNLELPFTFGQGTKVEIKR
notes: also called hz31C8-1.1; hz31C81-1.1
Turning to B3, the EC50 in test [1] is 71.6 pM; in test [2], 384 pM.

B4: Humanized 31C8-1.2 (antibody, human IgG2, kappa, V domains shown)
VH: QVQLVQSGAKVKKPGATVKISCKASGYIFIDSEMHWVQQAPGKGLEWMGAIDPETGDTVYAKKFKGRVTITADKSSSTAYMELSSLRSEDTAVYYCTGSTTDYYFAYWGQGTLVTVSS
VL: DIQMTQSPSSLSASVGDRVTITCRSSKSLLHSNGIIYLYWYQQKPGKAPKLLIYQLSNLASGVPSRFSSSGSGTDFTLTISSLQPEDFATYYCAQNLELPFTFGQGTKVEIKR
notes: also called hz31C8-1.2; hz31C81-1.2
As for B4, the EC50 in test [1] amounted to 74.6 pM; in test [2] it was 468 pM.

B5: GSK3772847 (antibody STLM208 in CN104411333, prepared in-house) (antibody, human IgG2, kappa, V domains shown)
VH: EVQLLESGGGLVQPGGSLRLSCAASGFTFSIYDMIWVRQAPGKGLEWVSSIRGEGGGTYYADSVKGRFTISRDNSKNTLYLQMNSLRAEDTAVYYCARDPWSTEGSFFVLDYWGQGTLVTVSS
VL: EIVLTQSPATLSLSPGERATLSCRASQSVDDDLAWYQQKPGQAPRLLIYDASNRATGIPARFSGSGSGTDFTLTISSLEPEDFAVYYCQQYITAPLTFGQGTKVEIKR
notes: Control anti-ST2 antibody
On to B5, for which the EC50 was 242 pM in test [1] and 676 pM in test [2].
